T1: Flag-SA1 WT (UniProt Q8WVM7)
T1 sequence: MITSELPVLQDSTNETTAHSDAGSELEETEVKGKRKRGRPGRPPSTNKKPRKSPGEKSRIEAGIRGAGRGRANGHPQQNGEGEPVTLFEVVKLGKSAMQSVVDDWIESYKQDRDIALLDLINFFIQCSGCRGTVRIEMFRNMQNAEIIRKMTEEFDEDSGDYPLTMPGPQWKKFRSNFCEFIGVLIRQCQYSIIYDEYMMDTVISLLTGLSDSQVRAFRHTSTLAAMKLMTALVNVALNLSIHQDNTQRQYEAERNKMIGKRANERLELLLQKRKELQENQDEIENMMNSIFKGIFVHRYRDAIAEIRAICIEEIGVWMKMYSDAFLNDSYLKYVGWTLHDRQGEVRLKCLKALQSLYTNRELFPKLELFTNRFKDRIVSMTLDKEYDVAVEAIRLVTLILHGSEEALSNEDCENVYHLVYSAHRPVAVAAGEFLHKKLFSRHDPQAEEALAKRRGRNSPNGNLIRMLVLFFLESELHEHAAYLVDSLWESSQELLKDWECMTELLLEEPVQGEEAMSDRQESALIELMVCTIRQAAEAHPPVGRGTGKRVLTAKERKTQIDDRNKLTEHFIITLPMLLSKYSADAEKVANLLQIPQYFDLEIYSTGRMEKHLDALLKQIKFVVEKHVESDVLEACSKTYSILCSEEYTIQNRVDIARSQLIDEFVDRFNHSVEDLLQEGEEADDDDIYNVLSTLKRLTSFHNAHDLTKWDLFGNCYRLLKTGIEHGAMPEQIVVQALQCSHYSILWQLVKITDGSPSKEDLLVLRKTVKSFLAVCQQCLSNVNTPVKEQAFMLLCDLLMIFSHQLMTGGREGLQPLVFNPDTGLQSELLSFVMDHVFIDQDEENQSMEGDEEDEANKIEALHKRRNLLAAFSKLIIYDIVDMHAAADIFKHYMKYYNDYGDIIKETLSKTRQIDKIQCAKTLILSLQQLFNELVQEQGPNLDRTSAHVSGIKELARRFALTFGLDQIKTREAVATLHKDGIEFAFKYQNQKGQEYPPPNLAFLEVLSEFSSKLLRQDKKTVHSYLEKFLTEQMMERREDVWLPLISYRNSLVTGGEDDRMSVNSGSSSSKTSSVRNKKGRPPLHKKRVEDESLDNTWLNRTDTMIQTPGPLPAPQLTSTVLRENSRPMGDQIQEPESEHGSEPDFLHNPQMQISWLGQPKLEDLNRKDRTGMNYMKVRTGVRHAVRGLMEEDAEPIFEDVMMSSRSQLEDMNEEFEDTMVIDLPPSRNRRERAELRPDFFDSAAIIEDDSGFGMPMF

T2: Flag-SA1 WT (UniProt Q8WVM7 1-1258)
T2 sequence: T1 sequence

B1: 3x TTAGGG EMSA duplex (dsDNA)
DNA 1: TTAGGGTTAGGGTTAGGGATGTCCAGCAAGCCAGAATTCGGCAGCGTA
DNA 2: TACGCTGCCGAATTCTGGCTTGCTGGACATCCCTAACCCTAACCCTAA
B2: Tel7 (7 TTAGGG repeats) (dsDNA)
DNA 1: CTGGATCCGTACTTAGGGTTAGGGTTAGGGTTAGGGTTAGGGTTAGGGTTAGGGACAAGAATTCGA
DNA 2: TCGAATTCTTGTCCCTAACCCTAACCCTAACCCTAACCCTAACCCTAACCCTAAGTACGGATCCAG
B3: Scram (scrambled Tel7) (dsDNA)
DNA 1: CTGGATCCGTACAGTGTAAGGGTGAGTGGTTGGGTGTGTGGGTGTTGATGTAGAACAAGAATTCGA
DNA 2: TCGAATTCTTGTTCTACATCAACACCCACACACCCAACCACTCACCCTTACACTGTACGGATCCAG

Tests used:
Flag-SA1 WT [1] = target: T1, Flag-SA1 WT; assay: AFM; conditions: scale: % of SA1 bound at same locations as telomeric region
[2] = target: TRF1;SA1 (EMSA with TRF1) (human?;human?, UniProt P54274;Q8WVM7 1-439;1-1258, |); assay: EMSA
Flag-SA1 WT [3] = target: T2, Flag-SA1 WT; assay: fluorescence anisotropy

Chain of TRF1;SA1 (EMSA with TRF1) (P54274 whole entry, one chain of several): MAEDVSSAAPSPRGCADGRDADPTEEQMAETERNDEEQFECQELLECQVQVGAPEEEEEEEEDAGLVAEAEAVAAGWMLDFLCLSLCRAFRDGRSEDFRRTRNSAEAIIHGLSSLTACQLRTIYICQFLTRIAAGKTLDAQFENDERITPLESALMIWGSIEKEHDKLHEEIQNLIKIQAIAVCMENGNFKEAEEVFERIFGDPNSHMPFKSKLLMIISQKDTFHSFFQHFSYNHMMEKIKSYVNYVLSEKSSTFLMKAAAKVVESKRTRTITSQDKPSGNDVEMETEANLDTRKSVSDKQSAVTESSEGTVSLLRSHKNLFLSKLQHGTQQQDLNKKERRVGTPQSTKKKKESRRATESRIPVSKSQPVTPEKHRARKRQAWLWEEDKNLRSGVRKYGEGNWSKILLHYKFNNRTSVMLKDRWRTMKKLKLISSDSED

Molecule | Kd (Flag-SA1 WT [3]) [nM] | other results
genomic control DNA |  | binding signal (Flag-SA1 WT [1]): 27
B1 |  | binding result [2]: binds
B2 | 34 ± 5.8 | 
B3 | 104 ± 13.6 | 
